Measurements: publication PMC10183829, “Shuffled ATG8 interacting motifs form an ancestral bridge between UFMylation and autophagy” (The EMBO Journal, 2023)

What was measured:
[1] = molecular target: GST-GABARAP (UniProt O95166); assay: microscopy-based protein-protein interaction assay (on-bead binding, confocal); settings: 1 μM C53 protein; glutathione-sepharose beads with GST-GABARAP; parent: est. 1.0; read off a plot
[2] = molecular target: GST-ATG8A (Arabidopsis thaliana) (UniProt Q8LEM4); assay: microscopy-based on-bead protein-protein interaction assay
GST-ATG8A (Arabidopsis thaliana), sequence (Q8LEM4 1-117): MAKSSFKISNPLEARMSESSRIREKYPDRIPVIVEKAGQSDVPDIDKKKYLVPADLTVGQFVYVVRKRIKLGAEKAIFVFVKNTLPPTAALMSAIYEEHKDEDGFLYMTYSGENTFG

GST-GABARAP, sequence (O95166 whole entry): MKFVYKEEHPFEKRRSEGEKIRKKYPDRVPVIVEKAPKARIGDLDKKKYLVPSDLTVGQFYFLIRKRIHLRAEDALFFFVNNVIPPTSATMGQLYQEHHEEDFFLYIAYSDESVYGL

Substance | response (normalized fluorescence) [1] | percent more efficiently recruited than the wild type [2]
mCh-AtC53, Q9FG23 IDWD274WDDI; IDWD285WDDI; IDWD333WDDI | 1.4 | –
mCh-AtC53^cAIM (IDWD274WDDI, IDWD285WDDI, IDWD333WDDI) (natural protein) | – | 22%
